T1: dtSARM1, the truncated form of SARM1 without the N-terminal mitochondrial signal, fused with a twin-Strep-tag … (human, UniProt Q6SZW1 28-724)
T1 chain: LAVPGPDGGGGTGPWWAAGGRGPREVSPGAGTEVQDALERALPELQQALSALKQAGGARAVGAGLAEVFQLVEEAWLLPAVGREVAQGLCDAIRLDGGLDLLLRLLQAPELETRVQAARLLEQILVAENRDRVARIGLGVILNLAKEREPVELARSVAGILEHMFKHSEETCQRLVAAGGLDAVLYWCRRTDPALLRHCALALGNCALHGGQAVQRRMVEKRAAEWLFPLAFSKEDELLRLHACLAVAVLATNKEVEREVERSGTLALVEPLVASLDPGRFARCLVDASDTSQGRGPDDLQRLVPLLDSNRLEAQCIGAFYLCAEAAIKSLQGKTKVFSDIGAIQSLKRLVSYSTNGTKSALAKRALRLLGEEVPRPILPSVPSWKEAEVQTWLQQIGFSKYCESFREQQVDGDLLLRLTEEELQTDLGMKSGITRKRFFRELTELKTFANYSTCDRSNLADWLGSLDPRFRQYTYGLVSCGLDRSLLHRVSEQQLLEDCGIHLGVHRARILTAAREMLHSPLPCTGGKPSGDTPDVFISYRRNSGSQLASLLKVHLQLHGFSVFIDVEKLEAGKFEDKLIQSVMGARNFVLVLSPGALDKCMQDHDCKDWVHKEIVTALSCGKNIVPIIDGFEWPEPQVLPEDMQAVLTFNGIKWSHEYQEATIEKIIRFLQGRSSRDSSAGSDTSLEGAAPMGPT

B1: dtSARM1, the truncated form of SARM1 without the N-terminal mitochondrial signal, fused with a twin-Strep-tag and a Flag-tag attached to the N-terminus (enzyme, human, UniProt Q6SZW1 28-724, looked up)
chain: T1 chain
notes: also called recombinant SARM1; SARM1^NMN (loaded with NMN); source: Expi293F stably expressing dtSARM1 (lentiviral); in lysate, or purified (StrepTactin resin, Superdex 200 gel filtration); not shown: twin-Strep, N-terminal, kept; Flag, N-terminal, kept
B2: Nanobody C6 (VHH)
VHH: AVQLVESGGGLVQPGGSLRLSCAASVSISRIYVMAWYRQAPGKQREVVAVIRYDGTTNYPDSVKGRFTISRDNAKNTVYLQMNSLKPEDTAVYYCNANVETWGQGTQVTVSS
notes: Subcloned into pET22b; alpaca nanobody from an immune phage display library; also called Nb-C6; source: E. coli C43(DE3), purified (Ni-Excel resin, HiTrap Q)

Columns and labels:
[1] = target: the molecule itself; assay: cryo-EM structure; 3 mg/mL dtSARM1 with 100 uM NMN in 100 mM Tris pH 8.0, 150 mM NaCl, 1 mM EDTA on ice for 10 min, then Nb-C6 at 1:1 molar ratio, 30 min on ice
[2] = target: T2, dtSARM1, the truncated form of SARM1 without the N-terminal mitochondrial signal, fused with a twin-Strep-tag … (human, UniProt Q6SZW1); assay: as above; settings: both partners purified
T2 construct: also called recombinant SARM1; SARM1^NMN (loaded with NMN); source: Expi293F stably expressing dtSARM1 (lentiviral); in lysate, or purified (StrepTactin resin, Superdex 200 gel filtration); not shown: twin-Strep, N-terminal, kept; Flag, N-terminal, kept

Nanobody C6 (alpaca) = assay: as above
[3] = target: T1, dtSARM1, the truncated form of SARM1 …; assay: SPR; 100 uM NMN, two-state fit kd1
[4] = target: T1, dtSARM1, the truncated form of SARM1 …; assay: SPR; 100 uM NMN, two-state fit kd2
[5] = target: T2, dtSARM1, the truncated form of SARM1 …; assay: SPR; BIAcore 8K; dtSARM1 captured (about 500 RU) on a CM5 chip coated with Strep-Tactin XT; Nb-C6 1.56-400 nM in NMN/HBS-EP (100 uM NMN, 10 mM HEPES, 150 mM NaCl, 1 mg/mL BSA, 3 mM EDTA, 0.05% P20); 360 s association, 540 s dissociation; two-state kinetics model; settings: both partners purified

Binder | stoichiometry N [1] | stoichiometry N [2] | stoichiometry N (Nanobody C6 (alpaca)) | koff [3] [s⁻¹] | koff [4] [s⁻¹] | Kd [5] [nM]
B1 | 8 |  |  |  |  | 
B2 |  | 1 | 2 | 0.0209 | 0.000601 | ~25

Source: PMC9780360, “A conformation-specific nanobody targeting the nicotinamide mononucleotide-activated state of SARM1” (Nature Communications, 2022)
